Experimental findings from patent US20220275067A1 (PROTHENA BIOSCIENCES, published 2022) are described below.

The labels stand for the following.
B1: mouse 14H3 antibody (antibody, mouse IgG2a, V domains shown)
VH: QVTLKESGPGILQPSQTLSLTCSFSGFSLSTYGMGVGWIRQPSGKGLEWLANIWWDDIKYYNAALKSRLTISKDTSKNQVFLKIASVDTADTATYYCARNVDYWGQGTTLTVSS
VL: DVVMTQTPLSLPVSLGDQASISCRSSQSLVHSNGNTFLHWYLQKPGQSPKLLIYKVSNRFSGVPDRFSGSGSGTDFTLKISRVEAEDLGVYFCSQSTLVPWTFGGGTKLEIK
notes: also called m14H3
B2: hu9F5VHv10/hu9F5VLv9_DIM1 (antibody, V domains shown)
VH: EVQLVQSGAEVKKPGATVKISCKASGFNIKDDYMNWVKQRPEKGLEWIGWIDPENGDTEYASKFQGRATMTADTSTNTAYMELSSLRSEDTAVYYCTTSNGWGQGTLVTVSS
VL: DIQMTQSPFSLPVTPGESASISCRSSKSLSHSNGITYLYWYQQKPGQSPQLLIYQGSNGASGVPDRFSSSGSGTDFTLKISRVEAEDVGVYYCAQNIELPLTFGQGTKLEIK
B3: hu9F5VHv10/hu9F5VLv9_DIM10 (antibody, V domains shown)
VH: B2 VH
VL: B2 VL with G56K
B4: hu9F5VHv10/hu9F5VLv9_DIM8 (antibody, V domains shown)
VH: B2 VH
VL: B2 VL with S30G, G56K, G59R
B5: hu9F5VHv10/hu9F5VLv9_DIM5 (antibody, V domains shown)
VH: B2 VH
VL: B2 VL with S30G, G59R
B6: hu9F5VHv10/hu9F5VLv9_DIM2 (antibody, V domains shown)
VH: B2 VH
VL: B2 VL with G59R
B7: hu9F5VHv10/hu9F5VLv9_DIM20 (antibody, V domains shown)
VH: B2 VH
VL: B2 VL with G56I
B8: hu9F5VHv10/hu9F5VLv9_DIM11 (antibody, V domains shown)
VH: B2 VH
VL: B2 VL with S30G, Q42G, G59R
notes: also called H10L9-DIM11; H10L9DIM11
B9: hu9F5VHv10/hu9F5VLv9_DIM19 (antibody, V domains shown)
VH: B2 VH
VL: B2 VL with Q42I, G56I, G59R
B10: hu9F5VHv10/hu9F5VLv9_DIM4 (antibody, V domains shown)
VH: B2 VH
VL: B2 VL with G59R, I97G
B11: hu9F5VHv10/hu9F5VLv9_DIM13 (antibody, V domains shown)
VH: B2 VH
VL: B2 VL with S30G, Q42G, G59R, I97L
B12: mouse 9F5 antibody (antibody, mouse IgG1, V domains shown)
VH: EVQLQQSGAELVRPGASVKLSCTASGFNIKDDYMNWVKQRPERGLEWIGWIDPENGDTEYASKFQGKATMTADTSSNTAYLQFSSLTSEDTAVYYCTTSNGWGQGTLVTVST
VL: DIVMTQAAFSNPVTLGTSASISCRSSKSLLHSNGITYLYWYLQKPGQSPQLLIYQMSNLASGVPDRFSSSGSGTDFTLRISRVEAEDVGVYYCAQNLELPLTFGAGTKLELK
modifications: here or on the partner: pHrodo label
B13: mouse 12C4 antibody (antibody, mouse IgG2a, V domains shown)
VH: B12 VH with K38R, E59A, T91S, T112A
VL: B12 VL
modifications: here or on the partner: pHrodo label
B14: mouse 2D11 antibody (antibody, mouse IgG2a, V domains shown)
VH: B12 VH
VL: B12 VL
modifications: here or on the partner: pHrodo label
B15: mouse 10C12 antibody (antibody, mouse IgG2a, V domains shown)
VH: B12 VH
VL: B12 VL
modifications: here or on the partner: pHrodo label
B16: mouse 17C12 antibody (antibody, mouse IgG2a, V domains shown)
VH: B12 VH with E1K, V2I, G26A, E59K, F83L, T112A
VL: DVVMTQTPLTLSVTIGQPASISCTSSQSLLHSNRKTYLHWLLQRPGQSPKLLIYLVSKLESGVPDRFSGSGSGTDFTLKISRVEAEDLGVYYCLQTTHFPRTFGGGTKLEIK
modifications: here or on the partner: pHrodo label
B17: mouse 14H3 antibody (antibody, mouse IgG2a, V domains shown)
VH: B1 VH
VL: B1 VL
modifications: here or on the partner: pHrodo label

Numbering of substitutions follows the chain as printed. Where no end group is shown, it is not given here. The star is where a group is joined. Biotin = O=C1N[C@H]2[C@H](CS[C@H]2CCCCC(=O)*)N1

T3 sequence (P10636 other isoform, or with tags, fused parts or gaps limits assumed): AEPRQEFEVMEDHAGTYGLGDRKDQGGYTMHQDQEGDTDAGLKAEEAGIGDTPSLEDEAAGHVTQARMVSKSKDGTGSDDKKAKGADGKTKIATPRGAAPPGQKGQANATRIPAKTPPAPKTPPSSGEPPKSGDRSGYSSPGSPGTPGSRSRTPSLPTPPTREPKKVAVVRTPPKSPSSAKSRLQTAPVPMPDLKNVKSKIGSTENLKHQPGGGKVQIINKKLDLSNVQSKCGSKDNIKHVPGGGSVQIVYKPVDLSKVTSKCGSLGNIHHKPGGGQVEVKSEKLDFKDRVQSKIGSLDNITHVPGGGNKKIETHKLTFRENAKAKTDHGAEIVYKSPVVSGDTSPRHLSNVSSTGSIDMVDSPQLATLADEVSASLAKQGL

The first assay addresses T1, biotinylated 15 amino acid tau peptide, residues 383-397 (human).
T1 peptide: Biotin-KAKTDHGAEIVYKSP
The assay can be described thus: ELISA, biotinylated peptide on streptavidin plate. Here is the method: (§1) Peptides contained 15 amino acids, with a 5 amino acid overlap. To enable binding to a streptavidin surface, peptides also contained an N-terminal biotin. Peptides were incubated on a streptavidin-coated plate, and the plate was blocked with 1% BSA in 1× PBS. After washing, antibodies were incubated on the plates for 1 hour at room temperature and washed. Plates were then coated with goat anti-mouse horseradish peroxidase (HRP), and washed. Plates were developed with OPD, and absorbance was read at 490 nm. […]
In general terms: In an ELISA, binding on a coated surface is turned into a signal by an enzyme label.
B1: the binding result is recorded as “binds”.

For a further assay, the target named is T2, biotinylated 15 amino acid tau peptide, residues 302-316 (human).
T2 peptide: Biotin-GGGSVQIVYKPVDLS
The assay is described as follows: ELISA, biotinylated peptide on streptavidin plate. Here is the method: as §1
As for B1, the binding result is given as “binds”.

The next assay concerns the target T3, recombinant human 4R0N tau (human, UniProt P10636 2-758).
T3 construct: also called recombinant 4R0N human tau; P10636-6
The assay can be described thus: SPR Biacore; antibody captured by anti-mouse antibody; tau as analyte; global 1:1 fit. Here is the method: Surface plasmon resonance (SPR) analysis using Biacore was performed by immobilizing an anti-mouse (GE Lifesciences) antibody to a CM3 chip with EDC/NHS. Antibodies were then captured to the anti-mouse surface to equivalent levels. Regeneration was performed with 2 30 s injections of 10 mM Glycine pH 1.7. Various concentrations ranging from 500 to 0.122 nM, diluted in […] dilutions, of recombinant human 4R0N tau were flowed over the sensor for a 150s association phase and 300 s dissociation phase. Data was blank subtracted to both an irrelevant sensor not containing test antibody to account for irrelevant binding to the prepared sensor surface, and to the mobile phase vehicle to account for the dissociation of test antibody from the anti-mouse capture. Data was then analyzed with onboard evaluation software using a global 1:1 fit.
For orientation: In SPR one partner is held on a chip, and binding of the other changes the refractive index at the surface.
In the case of B1, the Kd (commonly the constant that tells how readily two partners part at equilibrium) turned out to be 0.202 nM, the koff (commonly a measure of how fast the partners let go of each other) came to 0.00153 s⁻¹ and the kon (commonly a measure of how fast the partners come together) was 7.6e+06 M⁻¹ s⁻¹.

The target in another assay is T3, recombinant human 4R0N tau. The assay is described as follows: SPR Biacore T200; antibody captured by anti-human Fc; tau as analyte; global 1:1 fit. Here is the method:
Target binding analysis was performed using a Biacore T200 to compare the binding affinity of humanized 9F5 variants to recombinant human 4R0N tau. Anti-Human Fc antibody was immobilized on sensor chip CM3 via amine coupling, and humanized 9F5 variants were captured to equivalent levels. Various concentrations of recombinant 4R0N human tau (ranging from 0.02 nM to 12.5 nM) were passed over the captured ligand at 50 μL/min in running buffer (HBS+0.05% P-20, 1 mg/mL BSA) for 180 seconds association/420 seconds dissociation as a single cycle. Data was blank subtracted to both an irrelevant sensor not containing antibody and 0 nM analyte concentration. Analysis was performed using a global 1:1 fit with Biacore Evaluation software.
For the molecule B2, the Kd was 1.47 nM, the koff came to 0.00395 s⁻¹ and the kon came out at 2.69e+06 M⁻¹ s⁻¹.
The like results for B3 were, in that order, 3.77 nM, 0.026 s⁻¹ and 6.89e+06 M⁻¹ s⁻¹.
The like results for B4 were, in that order, 0.859 nM, 0.00232 s⁻¹ and 2.71e+06 M⁻¹ s⁻¹.
For B5, in that order: 0.542 nM, 0.000919 s⁻¹ and 1.7e+06 M⁻¹ s⁻¹.
Take B6: the Kd was 0.679 nM, the koff was found to be 0.00184 s⁻¹ and the kon amounted to 2.72e+06 M⁻¹ s⁻¹.
The like results for B7 were, in that order, 9.62 nM, 0.0334 s⁻¹ and 3.47e+06 M⁻¹ s⁻¹.
As for B8, the Kd came to 0.163 nM, the koff worked out at 0.000287 s⁻¹ and the on-rate constant (kon) is 1.76e+06 M⁻¹ s⁻¹.
On to B9, for which the Kd was determined as 1.97 nM, the koff is 0.00688 s⁻¹ and the kon stood at 3.49e+06 M⁻¹ s⁻¹.
For B10, in that order: 1.74 nM, 0.00439 s⁻¹ and 2.53e+06 M⁻¹ s⁻¹.
For B11, in that order: 0.508 nM, 0.00116 s⁻¹ and 2.28e+06 M⁻¹ s⁻¹.

A further assay deals with pHrodo-labeled tau P301L soluble oligomer, P10636. The assay can be described thus: cell-based or functional assay.
Chain of pHrodo-labeled tau P301L soluble oligomer, P10636 (P10636 other isoform, or with tags, fused parts or gaps P301L P301L): as the sequence (P10636 other isoform, or with tags, fused parts or gaps limits assumed) above
In the case of B12, the internalized pHrodo-tau in B103 cells (FACS), antibody at 0.061 µg/mL (% of maximum signal) amounted to 78.1; the internalized pHrodo-tau in B103 cells (FACS), antibody at 0.244 µg/mL (% of maximum signal) stood at 71.7; the internalized pHrodo-tau in B103 cells (FACS), antibody at 0.98 µg/mL (% of maximum signal) was 71; the internalized pHrodo-tau in B103 cells (FACS), antibody at 3.9 µg/mL (% of maximum signal) is 35.9. Further, the internalized pHrodo-tau in B103 cells (FACS), antibody at 15.625 µg/mL (% of maximum signal) was found to be 24.2 and the internalized pHrodo-tau in B103 cells (FACS), antibody at 62.5 µg/mL (% of maximum signal) was 18.1.
Consider B13, for which the internalized pHrodo-tau in B103 cells (FACS), antibody at 0.061 µg/mL (% of maximum signal) was determined as 78.2; the internalized pHrodo-tau in B103 cells (FACS), antibody at 0.244 µg/mL (% of maximum signal) was 78.6; the internalized pHrodo-tau in B103 cells (FACS), antibody at 0.98 µg/mL (% of maximum signal) turned out to be 69.7; the internalized pHrodo-tau in B103 cells (FACS), antibody at 3.9 µg/mL (% of maximum signal) stood at 42.6. Moreover, the internalized pHrodo-tau in B103 cells (FACS), antibody at 15.625 µg/mL (% of maximum signal) turned out to be 36.6 and the internalized pHrodo-tau in B103 cells (FACS), antibody at 62.5 µg/mL (% of maximum signal) was determined as 37.3.
For B14, the internalized pHrodo-tau in B103 cells (FACS), antibody at 0.061 µg/mL (% of maximum signal) was found to be 71.5; the internalized pHrodo-tau in B103 cells (FACS), antibody at 0.244 µg/mL (% of maximum signal) amounted to 79.5; the internalized pHrodo-tau in B103 cells (FACS), antibody at 0.98 µg/mL (% of maximum signal) came to 62.7; the internalized pHrodo-tau in B103 cells (FACS), antibody at 3.9 µg/mL (% of maximum signal) came out at 43. For the same molecule, the internalized pHrodo-tau in B103 cells (FACS), antibody at 15.625 µg/mL (% of maximum signal) turned out to be 28.6 and the internalized pHrodo-tau in B103 cells (FACS), antibody at 62.5 µg/mL (% of maximum signal) stood at 28.4.
With B15, the internalized pHrodo-tau in B103 cells (FACS), antibody at 0.061 µg/mL (% of maximum signal) was determined as 86.7; the internalized pHrodo-tau in B103 cells (FACS), antibody at 0.244 µg/mL (% of maximum signal) worked out at 9.09; the internalized pHrodo-tau in B103 cells (FACS), antibody at 0.98 µg/mL (% of maximum signal) is 90.5; the internalized pHrodo-tau in B103 cells (FACS), antibody at 3.9 µg/mL (% of maximum signal) was found to be 55.2. The molecule further gave an internalized pHrodo-tau in B103 cells (FACS), antibody at 15.625 µg/mL (% of maximum signal) of 38.9 and an internalized pHrodo-tau in B103 cells (FACS), antibody at 62.5 µg/mL (% of maximum signal) of 34.5.
B16: the internalized pHrodo-tau in B103 cells (FACS), antibody at 0.061 µg/mL (% of maximum signal) came to 79.8; the internalized pHrodo-tau in B103 cells (FACS), antibody at 0.244 µg/mL (% of maximum signal) was 78.6; the internalized pHrodo-tau in B103 cells (FACS), antibody at 0.98 µg/mL (% of maximum signal) was 63.9; the internalized pHrodo-tau in B103 cells (FACS), antibody at 3.9 µg/mL (% of maximum signal) came to 36.8. Besides, the internalized pHrodo-tau in B103 cells (FACS), antibody at 15.625 µg/mL (% of maximum signal) amounted to 32.4 and the internalized pHrodo-tau in B103 cells (FACS), antibody at 62.5 µg/mL (% of maximum signal) came out at 30.6.
The molecule B17 returned an internalized pHrodo-tau in B103 cells (FACS), antibody at 0.061 µg/mL (% of maximum signal) of 79.7; an internalized pHrodo-tau in B103 cells (FACS), antibody at 0.244 µg/mL (% of maximum signal) of 66; an internalized pHrodo-tau in B103 cells (FACS), antibody at 0.98 µg/mL (% of maximum signal) of 67.8; an internalized pHrodo-tau in B103 cells (FACS), antibody at 3.9 µg/mL (% of maximum signal) of 63.1. This molecule had an internalized pHrodo-tau in B103 cells (FACS), antibody at 15.625 µg/mL (% of maximum signal) of 53.2 and an internalized pHrodo-tau in B103 cells (FACS), antibody at 62.5 µg/mL (% of maximum signal) of 48.4.
